Results as given in the supplement of paper PMC12764529.
± gives the half width of the 95% confidence interval.

Assays:
[1] = folding stability dG unfold (combined trypsin and chymotrypsin); higher = more stable
Outline: (§1)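 Designed mini-proteins (under 80 residues, no cysteine) in a PA-tagged cDNA display construct were digested with trypsin and chymotrypsin. Each protease was used at 11 concentrations (threefold dilutions) plus a no-protease condition, followed by sequencing. K50 was inferred by Bayesian fitting of sequencing counts, and unfolding free energy was derived against a sequence-predicted unfolded-state K50 and a shared folded-state K50, per protease or combined. Only designs with AlphaFold2 dimer inter-PAE above 15 were kept.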

[2] = folding stability dG unfold from trypsin proteolysis; higher = more stable
Outline: as §1

[3] = folding stability dG unfold from chymotrypsin proteolysis; higher = more stable
Outline: as §1

For “SAGGPMKPFLKNFSGPEEAIAFVNKLREELKGPVGLTLIFPDGSVIEVVDPQKLESIDNFEVIVTVSESAGG [r13_620_JUSTAS]”, which “folding stability dG unfold” value [1] is on record?
Its value is 1.69 ± 0.096 kcal/mol.

And the “folding stability dG unfold” value [2]?
Its value is 1.39 ± 0.039 kcal/mol.

And the “folding stability dG unfold” value [3]?
The value was 1.8 ± 0.085 kcal/mol.

For “SAGGPMKVKVTLIVRDKETGEWKEVEREMTLDELRELLASLPPDAEVFVKIEVDGKTVTLSLEELKALSAGG [r13_254_TrROS_Hall]”, which “folding stability dG unfold” value [1] is on record?
Its value is 4.29 ± 0.12 kcal/mol.

And the “folding stability dG unfold” value [2]?
Its value is 3.84 ± 0.17 kcal/mol.

And the “folding stability dG unfold” value [3]?
The value was 4.32 ± 0.097 kcal/mol.

For “SAGGPNFTIKIEIEEIPNGVRVHKMTMELPDGHAWLMVMLYSPDPGKMFMIMVPVDPNGGIEDINIMPSAGG [r13_323_TrROS]”, which “folding stability dG unfold” value [1] is on record?
Its value is 3.92 ± 0.19 kcal/mol.

And the “folding stability dG unfold” value [2]?
Its value is 2.52 ± 0.077 kcal/mol.

What about the “folding stability dG unfold” value [3] of the same sequence?
The value was 4.12 ± 0.074 kcal/mol.

Which results are given for “SAGGPNLYIFIKIEHKGQTVTFMYPVPPGNLEKLVDEIASMGFPEIKIEEIYIFPPNGWIPVTVRLPSAGGS [r8_219_TrROS]”?
folding stability dG unfold [1]: 3.4 ± 0.14 kcal/mol; folding stability dG unfold [2]: 2.88 ± 0.13 kcal/mol; folding stability dG unfold [3]: 3.71 ± 0.041 kcal/mol

What does the source list for “SAGGPPGWKPVEMKITVMFDDPEEAAEKIKEEVRSHFPNIEITKVEVQRNPENNMYMVTVDIRMWVPSAGGS [r8_120_TrROS]”?
folding stability dG unfold [1]: 3.37 ± 0.11 kcal/mol; folding stability dG unfold [2]: 3.08 ± 0.18 kcal/mol; folding stability dG unfold [3]: 3.37 ± 0.081 kcal/mol

What does the source list for “SAGGPPIKKIEITKIHPGKGIIQVSIKLPGDGHPIMVRAEIDDPEPGKIKIEIQDPNNGQPQEITIKFSAGG [r13_337_TrROS]”?
folding stability dG unfold [1]: 1.1 ± 0.28 kcal/mol; folding stability dG unfold [2]: 1.23 ± 0.094 kcal/mol; folding stability dG unfold [3]: 0.683 ± 0.08 kcal/mol

Which “folding stability dG unfold” value [1] does the source give for “SAGGPPRPVRIDIDPDAGSIEIMFPNGWPYEIPIPPDSIDEITLDPNDHVIEIKMPGKEIKFDIEPVSAGGS [r16_104_TrROS]” here?
The value was 0.443 ± 0.11 kcal/mol.

And the “folding stability dG unfold” value [2]?
The value was -0.376 ± 0.12 kcal/mol.

And the “folding stability dG unfold” value [3]?
The value was 0.757 ± 0.029 kcal/mol.

For “SAGGPPVAEIRVTEEDPETGVVRMEATLPEAPRPVRATGTRLDPGGGTVLVTVTDPDGGPDTTTTLAASAGG [r13_337_JUSTAS]”, which “folding stability dG unfold” value [1] is on record?
Its value is 0.0684 ± 0.12 kcal/mol.

What about the “folding stability dG unfold” value [2] of the same sequence?
The value was -0.308 ± 0.1 kcal/mol.

What about the “folding stability dG unfold” value [3] of the same sequence?
Its value is 0.221 ± 0.12 kcal/mol.

With “SAGGPPVIRFPTAEIPASGTIEDIVAAIERATGEPLPEELVEQILNGKTIEEIIELLKKRGYPVEYLSAGGS [r16_601_JUSTAS]” as the sequence, how does the “folding stability dG unfold” value [1] read?
The value was 3.33 ± 0.088 kcal/mol.

And the “folding stability dG unfold” value [2]?
The value was 3.84 ± 0.14 kcal/mol.

And the “folding stability dG unfold” value [3]?
The value was 3.11 ± 0.074 kcal/mol.

With “SAGGPRVEVEEVELEGDYLVVRARVEVPLDDGTYEFELTLVLPVPPPPLPLPPVDPRFPRAPDDDLVSAGGS [r8_234_TrMRF]” as the sequence, how does the “folding stability dG unfold” value [1] read?
The value was 0.971 ± 0.13 kcal/mol.

And the “folding stability dG unfold” value [2]?
Its value is 0.584 ± 0.073 kcal/mol.

And the “folding stability dG unfold” value [3]?
The value was 1.33 ± 0.073 kcal/mol.

Which results are given for “SAGGPVFEVTPEVDPDTDLVTYTVRVPADVDFAAVAKALETEFADGSRAEVKPLPDGTVVVVVRLPASAGGS [r8_255_TrMRF]”?
folding stability dG unfold [1]: 0.942 ± 0.059 kcal/mol; folding stability dG unfold [2]: 1.25 ± 0.023 kcal/mol; folding stability dG unfold [3]: 0.307 ± 0.12 kcal/mol

Which results are given for “SAGGPVLRLSFPTRTPDGELVRVEVVYDPETGALLVRVYSLTRPNRAVLYLVDPENPLTVLRAEELPLSAGG [r13_400_TrMRF]”?
folding stability dG unfold [1]: 2.82 ± 0.18 kcal/mol; folding stability dG unfold [2]: 2.47 ± 0.11 kcal/mol; folding stability dG unfold [3]: 3.01 ± 0.071 kcal/mol

What does the source list for “SAGGPVVTTTTEYDPSTGKTYTVTTVPGSATQTTTYTLPDGTVLTTTTTVSPTTGGVTSTTPTTTPVPASAG [r5_587_JUSTAS]”?
folding stability dG unfold [1]: 1.39 ± 0.061 kcal/mol; folding stability dG unfold [2]: 1.3 ± 0.046 kcal/mol; folding stability dG unfold [3]: 1.31 ± 0.089 kcal/mol

For “SAGGPWHEQKHEITDPDDGKPIKISHTHYPDGYPRVRIELNNGKKIEFMVPPNGPPTPDQLLDAIKQFSAGG [r13_492_TrROS]”, which “folding stability dG unfold” value [1] is on record?
The value was 0.478 ± 0.11 kcal/mol.

What about the “folding stability dG unfold” value [2] of the same sequence?
The value was 0.317 ± 0.092 kcal/mol.

What about the “folding stability dG unfold” value [3] of the same sequence?
The value was 0.452 ± 0.16 kcal/mol.

Which “folding stability dG unfold” value [1] does the source give for “SAGGPWRFEIDDIQPPEDGKVQIRIKLYNDDGEPIQELSIPMKGVDDVKITIPIGNQPIKIPITVVPASAGG [r13_427_TrROS]” here?
The value was 0.361 ± 0.19 kcal/mol.

What about the “folding stability dG unfold” value [2] of the same sequence?
The value was -0.13 ± 0.27 kcal/mol.

What about the “folding stability dG unfold” value [3] of the same sequence?
The value was 0.614 ± 0.22 kcal/mol.

With “SAGGPYMEIQFPMPEDQVRPALEKAADEWGMEVKEINYHPNNGMVTITVNDNMPPNRIRKAIEKVLKSAGGS [r8_338_TrROS]” as the sequence, how does the “folding stability dG unfold” value [1] read?
Its value is -0.181 ± 0.15 kcal/mol.

What about the “folding stability dG unfold” value [2] of the same sequence?
The value was -0.784 ± 0.4 kcal/mol.

What about the “folding stability dG unfold” value [3] of the same sequence?
Its value is 0.0859 ± 0.09 kcal/mol.

What does the source list for “SAGGREITIMIWMPLEDMEEFANEIANALAAEGYKVKDIEIQFKVIPDPENGRPWVMFMIEVEIEPPSAGGS [r8_475_TrROS]”?
folding stability dG unfold [1]: 4.27 ± 0.1 kcal/mol; folding stability dG unfold [2]: 2.96 ± 0.19 kcal/mol; folding stability dG unfold [3]: 4.717 ± 0.044 kcal/mol

For “SAGGRFYFEAKDPSITPEELRAALEEAFGVKFHRIKPVEPLPDGMLYEVEIPEIGGHFDVSAEEIEKLLSAG [r5_550_TrMRF]”, which “folding stability dG unfold” value [1] is on record?
Its value is 1.56 ± 0.16 kcal/mol.

What about the “folding stability dG unfold” value [2] of the same sequence?
The value was 1.27 ± 0.053 kcal/mol.

What about the “folding stability dG unfold” value [3] of the same sequence?
Its value is 1.78 ± 0.077 kcal/mol.
